Source: patent EP2265113B1

Key:
[1] = target: H-ferritin receptors (binding sites) on bovine retinal endothelial cells (BREC cell homogenate); test: saturation binding of 125I-H-ferritin to BREC homogenate, one-site global fit
[2] = target: H-ferritin receptors (binding sites) on rat brain microvasculature (isolated microvessels); test: saturation binding of 125I-H-ferritin to rat brain microvessels, one-site global fit
[3] = target: H-ferritin receptors (binding sites) on bovine retinal endothelial cells (BREC cell homogenate); test: homologous competition: unlabelled H-ferritin against 0.4 nM 125I-H-ferritin on BREC homogenate, one-site competition fit

Bmax (fmol/mg protein) [1]: 466
Kd [1]: 2.7 nM
Bmax (fmol/mg protein) [2]: 573
Kd [2]: 7.9 nM
Kd [3]: 2 nM
Substance: recombinant human H-ferritin (His tagged, expressed in E. coli, nickel column purified) (from UniProt P02794 1-183) (ligand)
